According to the supplement of paper PMC7125110:
± gives the standard error. For some of these results: Variants at the floor of the assay were thinned out.

B1: glmS ribozyme (parent)
chain: AUAAAAGCGCCAGAACUACAGAAAUGUAGUUGACGAGGAGGAGGUUUAUCGAAUUUUCGGCGGAUGCCUCCAAA

Legend:
Details in all cases: with glucosamine-6-phosphate
glucosamine-6-phosphate [1] = variants of: B1; experiment: kcat; higher = faster cleavage; RNA array
In short: (§1)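 Barcoded ribozyme variants on sequenced MiSeq chips were transcribed in situ by E. coli RNA polymerase and followed at 37 °C through a hybridised Cy3 probe. Glucosamine-6-phosphate at 40 μM to 10 mM in HEPES/KCl/Mg(OAc)2 buffer was flowed in, and tiles were imaged over ~14 h. Signals were normalised to baseline and to non-cleaving reference variants, and per-tile medians were fit to one- or two-exponential decays to give kobs. Weighted Michaelis–Menten fits across concentrations gave kcat and KM.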

glucosamine-6-phosphate [2] = variants of: B1; experiment: self-cleavage kobs at 640 uM GlcN6P; higher = faster cleavage; RNA array
In short: as §1

glucosamine-6-phosphate [3] = variants of: B1; experiment: self-cleavage kobs at 2500 uM GlcN6P; higher = faster cleavage; RNA array
In short: as §1

glucosamine-6-phosphate [4] = variants of: B1; experiment: KM; higher = weaker cofactor use; RNA array
In short: as §1

glucosamine-6-phosphate [5] = variants of: B1; experiment: self-cleavage kobs at 40 uM GlcN6P; higher = faster cleavage; RNA array
In short: as §1

glucosamine-6-phosphate [6] = variants of: B1; experiment: self-cleavage kobs at 160 uM GlcN6P; higher = faster cleavage; RNA array
In short: as §1

glucosamine-6-phosphate [7] = variants of: B1; experiment: self-cleavage kobs at 10000 uM GlcN6P; higher = faster cleavage; RNA array
In short: as §1

## U30C C58U C70U
glucosamine-6-phosphate [1]
  kcat: 3.42e-05 ± 1.3e-05 s⁻¹
glucosamine-6-phosphate [2]
  self-cleavage kobs at 640 uM GlcN6P: 5.85e-05 ± 2.1e-05 s⁻¹
glucosamine-6-phosphate [3]
  self-cleavage kobs at 2500 uM GlcN6P: 3.95e-05 ± 1.9e-05 s⁻¹

## U45A C71U
glucosamine-6-phosphate [1]
  kcat: 0.0639 ± 0.022 s⁻¹
glucosamine-6-phosphate [4]
  KM: 2060 ± 810 µM
glucosamine-6-phosphate [5]
  self-cleavage kobs at 40 uM GlcN6P: 0.00126 ± 0.00019 s⁻¹
glucosamine-6-phosphate [6]
  self-cleavage kobs at 160 uM GlcN6P: 0.00507 ± 0.00093 s⁻¹
glucosamine-6-phosphate [2]
  self-cleavage kobs at 640 uM GlcN6P: 0.012 ± 0.0029 s⁻¹
glucosamine-6-phosphate [7]
  self-cleavage kobs at 10000 uM GlcN6P: 0.0584 ± 0.019 s⁻¹

## G51U U69G
glucosamine-6-phosphate [1]
  kcat: 4.26e-05 ± 1.5e-05 s⁻¹
glucosamine-6-phosphate [6]
  self-cleavage kobs at 160 uM GlcN6P: 5.17e-05 ± 1.2e-05 s⁻¹
glucosamine-6-phosphate [2]
  self-cleavage kobs at 640 uM GlcN6P: 5.57e-05 ± 1.3e-05 s⁻¹
glucosamine-6-phosphate [3]
  self-cleavage kobs at 2500 uM GlcN6P: 7e-05 ± 1e-05 s⁻¹
glucosamine-6-phosphate [7]
  self-cleavage kobs at 10000 uM GlcN6P: 1.72e-05 ± 8.1e-06 s⁻¹

## C16G G40A
glucosamine-6-phosphate [1]
  kcat: 0.000334 ± 0.00011 s⁻¹
glucosamine-6-phosphate [2]
  self-cleavage kobs at 640 uM GlcN6P: 0.000114 ± 2.6e-05 s⁻¹
glucosamine-6-phosphate [3]
  self-cleavage kobs at 2500 uM GlcN6P: 0.000473 ± 0.00011 s⁻¹
glucosamine-6-phosphate [7]
  self-cleavage kobs at 10000 uM GlcN6P: 0.00027 ± 5.7e-05 s⁻¹

## C16G U30A
glucosamine-6-phosphate [1]
  kcat: 0.000474 ± 6e-05 s⁻¹
glucosamine-6-phosphate [4]
  KM: 1780 ± 370 µM
glucosamine-6-phosphate [6]
  self-cleavage kobs at 160 uM GlcN6P: 3.9e-05 ± 1.2e-05 s⁻¹
glucosamine-6-phosphate [2]
  self-cleavage kobs at 640 uM GlcN6P: 0.00012 ± 2.3e-05 s⁻¹
glucosamine-6-phosphate [3]
  self-cleavage kobs at 2500 uM GlcN6P: 0.000313 ± 6.1e-05 s⁻¹
glucosamine-6-phosphate [7]
  self-cleavage kobs at 10000 uM GlcN6P: 0.000372 ± 9.2e-05 s⁻¹

## U47G A53G U57C C68U
glucosamine-6-phosphate [1]
  kcat: 9.73e-05 ± 3.2e-05 s⁻¹
glucosamine-6-phosphate [2]
  self-cleavage kobs at 640 uM GlcN6P: 3.09e-05 ± 1.2e-05 s⁻¹
glucosamine-6-phosphate [3]
  self-cleavage kobs at 2500 uM GlcN6P: 3.84e-05 ± 1.3e-05 s⁻¹
glucosamine-6-phosphate [7]
  self-cleavage kobs at 10000 uM GlcN6P: 8.44e-05 ± 1.8e-05 s⁻¹

## G66U C71A
glucosamine-6-phosphate [1]
  kcat: 0.000234 ± 2.4e-05 s⁻¹
glucosamine-6-phosphate [4]
  KM: 1020 ± 250 µM
glucosamine-6-phosphate [6]
  self-cleavage kobs at 160 uM GlcN6P: 3.4e-05 ± 1e-05 s⁻¹
glucosamine-6-phosphate [2]
  self-cleavage kobs at 640 uM GlcN6P: 8.54e-05 ± 8.7e-06 s⁻¹
glucosamine-6-phosphate [3]
  self-cleavage kobs at 2500 uM GlcN6P: 0.000205 ± 2.4e-05 s⁻¹
glucosamine-6-phosphate [7]
  self-cleavage kobs at 10000 uM GlcN6P: 0.000202 ± 1.9e-05 s⁻¹

## G66U C71U
glucosamine-6-phosphate [1]
  kcat: 0.00186 ± 0.00045 s⁻¹
glucosamine-6-phosphate [4]
  KM: 2150 ± 760 µM
glucosamine-6-phosphate [5]
  self-cleavage kobs at 40 uM GlcN6P: 3.7e-05 ± 8.7e-06 s⁻¹
glucosamine-6-phosphate [6]
  self-cleavage kobs at 160 uM GlcN6P: 0.000107 ± 1.4e-05 s⁻¹
glucosamine-6-phosphate [2]
  self-cleavage kobs at 640 uM GlcN6P: 0.000471 ± 4.1e-05 s⁻¹
glucosamine-6-phosphate [3]
  self-cleavage kobs at 2500 uM GlcN6P: 0.00174 ± 0.00026 s⁻¹
glucosamine-6-phosphate [7]
  self-cleavage kobs at 10000 uM GlcN6P: 0.0014 ± 0.00014 s⁻¹

## A64C C70U
glucosamine-6-phosphate [1]
  kcat: 5.98e-05 ± 9.8e-07 s⁻¹
glucosamine-6-phosphate [4]
  KM: 1590 ± 110 µM
glucosamine-6-phosphate [5]
  self-cleavage kobs at 40 uM GlcN6P: < 1e-05 s⁻¹
glucosamine-6-phosphate [3]
  self-cleavage kobs at 2500 uM GlcN6P: 3.63e-05 ± 9.6e-06 s⁻¹
glucosamine-6-phosphate [7]
  self-cleavage kobs at 10000 uM GlcN6P: 5.16e-05 ± 6.8e-06 s⁻¹

## U54C G66A
glucosamine-6-phosphate [1]
  kcat: 0.011 ± 0.0023 s⁻¹
glucosamine-6-phosphate [4]
  KM: 1100 ± 320 µM
glucosamine-6-phosphate [5]
  self-cleavage kobs at 40 uM GlcN6P: 0.000397 ± 5.3e-05 s⁻¹
glucosamine-6-phosphate [6]
  self-cleavage kobs at 160 uM GlcN6P: 0.00112 ± 0.0004 s⁻¹
glucosamine-6-phosphate [2]
  self-cleavage kobs at 640 uM GlcN6P: 0.00522 ± 0.0011 s⁻¹
glucosamine-6-phosphate [3]
  self-cleavage kobs at 2500 uM GlcN6P: 0.00593 ± 0.0014 s⁻¹
glucosamine-6-phosphate [7]
  self-cleavage kobs at 10000 uM GlcN6P: 0.0118 ± 0.0022 s⁻¹

## A12G U56A
glucosamine-6-phosphate [1]
  kcat: 0.00105 ± 0.00021 s⁻¹
glucosamine-6-phosphate [4]
  KM: 7960 ± 2300 µM
glucosamine-6-phosphate [6]
  self-cleavage kobs at 160 uM GlcN6P: 4.26e-05 ± 1.7e-05 s⁻¹
glucosamine-6-phosphate [2]
  self-cleavage kobs at 640 uM GlcN6P: 7.85e-05 ± 1.1e-05 s⁻¹
glucosamine-6-phosphate [3]
  self-cleavage kobs at 2500 uM GlcN6P: 0.000221 ± 4.8e-05 s⁻¹
glucosamine-6-phosphate [7]
  self-cleavage kobs at 10000 uM GlcN6P: 0.000592 ± 6.2e-05 s⁻¹

## C50U C68U
glucosamine-6-phosphate [1]
  kcat: 2.09e-05 ± 3.8e-06 s⁻¹
glucosamine-6-phosphate [3]
  self-cleavage kobs at 2500 uM GlcN6P: 3e-05 ± 1.2e-05 s⁻¹

## A15U C16U
glucosamine-6-phosphate [1]
  kcat: 0.00176 ± 0.00028 s⁻¹
glucosamine-6-phosphate [4]
  KM: 1750 ± 440 µM
glucosamine-6-phosphate [5]
  self-cleavage kobs at 40 uM GlcN6P: 4.63e-05 ± 9.6e-06 s⁻¹
glucosamine-6-phosphate [6]
  self-cleavage kobs at 160 uM GlcN6P: 0.000152 ± 3.2e-05 s⁻¹
glucosamine-6-phosphate [2]
  self-cleavage kobs at 640 uM GlcN6P: 0.000423 ± 9.6e-05 s⁻¹
glucosamine-6-phosphate [3]
  self-cleavage kobs at 2500 uM GlcN6P: 0.000885 ± 0.00016 s⁻¹
glucosamine-6-phosphate [7]
  self-cleavage kobs at 10000 uM GlcN6P: 0.00172 ± 0.00026 s⁻¹

## C61G G63C
glucosamine-6-phosphate [1]
  kcat: < 1e-05 s⁻¹
glucosamine-6-phosphate [4]
  KM: 181 ± 67 µM
glucosamine-6-phosphate [5]
  self-cleavage kobs at 40 uM GlcN6P: < 1e-05 s⁻¹
glucosamine-6-phosphate [6]
  self-cleavage kobs at 160 uM GlcN6P: < 1e-05 s⁻¹
glucosamine-6-phosphate [3]
  self-cleavage kobs at 2500 uM GlcN6P: < 1e-05 s⁻¹
